Experimental data: paper PMC10402027 (bioRxiv, 2023)

Biological target: T1, progesterone receptor, B isoform (PR-B) (UniProt P06401 1-933)
T1 sequence: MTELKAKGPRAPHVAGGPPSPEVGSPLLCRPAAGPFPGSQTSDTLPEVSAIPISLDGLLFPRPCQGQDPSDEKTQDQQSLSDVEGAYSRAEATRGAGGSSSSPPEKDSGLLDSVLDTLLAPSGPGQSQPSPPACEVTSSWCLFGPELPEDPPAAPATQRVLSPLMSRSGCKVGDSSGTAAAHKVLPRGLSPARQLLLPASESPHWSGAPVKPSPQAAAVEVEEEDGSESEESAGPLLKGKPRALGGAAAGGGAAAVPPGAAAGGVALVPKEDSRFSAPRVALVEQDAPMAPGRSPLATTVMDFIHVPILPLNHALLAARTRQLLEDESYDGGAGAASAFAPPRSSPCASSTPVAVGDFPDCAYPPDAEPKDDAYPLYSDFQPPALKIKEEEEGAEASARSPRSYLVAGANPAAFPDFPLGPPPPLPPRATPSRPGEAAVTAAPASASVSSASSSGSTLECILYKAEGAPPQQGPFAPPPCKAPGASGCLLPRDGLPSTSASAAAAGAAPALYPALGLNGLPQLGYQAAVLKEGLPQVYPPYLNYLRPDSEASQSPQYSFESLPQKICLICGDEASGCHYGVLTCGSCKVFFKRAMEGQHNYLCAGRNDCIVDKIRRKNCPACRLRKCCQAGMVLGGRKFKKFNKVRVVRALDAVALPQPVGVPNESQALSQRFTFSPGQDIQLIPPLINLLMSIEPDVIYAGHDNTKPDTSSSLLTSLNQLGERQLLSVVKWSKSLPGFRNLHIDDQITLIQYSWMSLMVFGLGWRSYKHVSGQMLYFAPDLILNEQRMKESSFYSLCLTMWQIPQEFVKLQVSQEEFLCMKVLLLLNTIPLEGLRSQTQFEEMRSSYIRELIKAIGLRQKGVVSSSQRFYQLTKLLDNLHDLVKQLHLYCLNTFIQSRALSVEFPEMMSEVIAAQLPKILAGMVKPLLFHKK
Assay: FRET or BRET

B1: estrogen receptor alpha Y537S (ERα Y537S) (receptor)
chain: MTMTLHTKASGMALLHQIQGNELEPLNRPQLKIPLERPLGEVYLDSSKPAVYNYPEGAAYEFNAAAAANAQVYGQTGLPYGPGSEAAAFGSNGLGGFPPLNSVSPSPLMLLHPPPQLSPFLQPHGQQVPYYLENEPSGYTVREAGPPAFYRPNSDNRRQGGRERLASTNDKGSMAMESAKETRYCAVCNDYASGYHYGVWSCEGCKAFFKRSIQGHNDYMCPATNQCTIDKNRRKSCQACRLRKCYEVGMMKGGIRKDRRGGRMLKHKRQRDDGEGRGEVGSAGDMRAANLWPSPLMIKRSKKNSLALSLTADQMVSALLDAEPPILYSEYDPTRPFSEASMMGLLTNLADRELVHMINWAKRVPGFVDLTLHDQVHLLECAWLEILMIGLVWRSMEHPGKLLFAPNLLLDRNQGKCVEGMVEIFDMLLATSSRFRMMNLQGEEFVCLKSIILLNSGVYTFLSSTLKSLEEKDHIHRVLDKITDTLIHLMAKAGLTLQQQHQRLAQLLLILSHIRHMSNKGMEHLYSMKCKNVVPLSDLLLEMLDAHRLHAPTSRGGASVEETDQSHLATAGSTSSHSLQKYYITGEAEGFPATV
  fold of the progesterone-induced increase in NanoBRET proximity against ERα WT: ~2 fold
